From patent US20170349647A1 (PANASONIC INTELLECTUAL PROPERTY MANAGEMENT, published 2017)

Target: recombinant nucleoprotein (NP) protein derived from influenza virus H1N1 to which a Flag tag was fus (influenza virus H1N1)
Sequence (P03466 whole entry): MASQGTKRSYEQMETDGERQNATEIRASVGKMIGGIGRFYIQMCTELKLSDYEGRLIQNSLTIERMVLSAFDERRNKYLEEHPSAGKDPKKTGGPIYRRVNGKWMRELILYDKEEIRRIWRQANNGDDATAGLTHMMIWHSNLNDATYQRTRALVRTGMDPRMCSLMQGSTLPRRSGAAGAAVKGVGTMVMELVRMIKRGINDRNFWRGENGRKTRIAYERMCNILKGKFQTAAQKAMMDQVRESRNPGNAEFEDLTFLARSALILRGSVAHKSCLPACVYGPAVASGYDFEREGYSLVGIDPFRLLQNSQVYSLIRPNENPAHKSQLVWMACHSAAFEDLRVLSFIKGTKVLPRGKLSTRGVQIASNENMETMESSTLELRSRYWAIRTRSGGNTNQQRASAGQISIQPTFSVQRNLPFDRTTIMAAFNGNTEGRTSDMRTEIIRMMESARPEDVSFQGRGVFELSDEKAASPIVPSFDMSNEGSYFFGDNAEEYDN

B1: VHH antibody consisting of the amino acid sequence represented by SEQ ID NO: 08 (VHH)
VHH: QVQLVESGGGLVQAGGSLRLSCAASRTIFNPNVMGWYRQAPGKQRELVADISLSGSTNYADSVKGRFTISRDNAKNTMYLQMNSLKPEDTAVYYCNTNAISGAPGRYWGQGTQVTVSS
Q: B1 was tested. Which Kd did it give?
A: Its Kd is 236 pM.
